Assay [1] concerns the target SIRPα V2-his (made by transient transfection of HEK293F cells according to SEQ ID NO:38) (Homo sapiens (Human)) (UniProt P78324). The experiment in a line: competition ELISA; coated SIRPα-V2-his, biotin-CD47 as competitor.
Assay [2] has the same target. Briefly: BLI (Octet RED 96), His-tagged antigen on Ni-NTA sensor, antibody in solution. Background: In BLI a coated tip is dipped into the sample, and binding shifts an interference pattern.

One may read the IC50 as the point on the concentration scale where inhibition reaches its midpoint. In general, Kd refers to the equilibrium constant for the complex coming apart. Low values mean higher affinity, high ones lower affinity. As usually defined, the koff is the rate constant with which the complex falls apart. Read a low koff as slow dissociation. What is called kon is the rate constant with which the complex forms. High values mean faster complex formation, low ones slower complex formation.

Sequence of SIRPα V2-his (made by transient transfection of HEK293F cells according to SEQ ID NO:38) (Homo sapiens (Human)) (P78324 other isoform, or with tags, fused parts or gaps limits assumed): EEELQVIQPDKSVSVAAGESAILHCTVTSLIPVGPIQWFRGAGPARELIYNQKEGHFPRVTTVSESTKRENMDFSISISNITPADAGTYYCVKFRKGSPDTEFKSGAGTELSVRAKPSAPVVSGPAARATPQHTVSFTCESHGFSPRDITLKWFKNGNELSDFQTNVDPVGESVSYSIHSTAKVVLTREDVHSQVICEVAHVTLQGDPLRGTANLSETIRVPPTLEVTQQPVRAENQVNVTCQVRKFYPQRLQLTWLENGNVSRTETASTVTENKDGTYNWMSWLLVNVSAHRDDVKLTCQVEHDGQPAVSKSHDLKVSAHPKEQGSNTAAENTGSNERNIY

B1: AD4-12 (antibody, V domains shown)
VH: EVQLEESGPGLVAPSQSLSITCTVSGFSLTGYGVNWVRQPPGKGLEWLGIIWGDGSTDYNSALKSRLSISKDNSKSQVFLKMNSLQSDDTARYYCARAGKMDYWGQGTSVTVSS
VL: DIVLTQSPASLAVSLGQGATISCRASESVDSYGNSFMHWYQQKPGQPPKPLIYLASNLESGVPARFSGSGSRTDFTLTIDPVEADDAATYYCQQNNEYPWTFGGGTKLEIK
Take B1: the IC50 in assay [1] is 9.32 nM. Also, in assay [2], the Kd amounted to 0.898 nM, the koff came out at 0.000327 s⁻¹ and the kon turned out to be 364000 M⁻¹ s⁻¹.

The values above are taken from patent publication US20240368301A1.
